In US20250243282A1:

Biological target: Recombinant human Gal3 (rhGal3) (TrueBinding, #QC200361) (human) (UniProt P17931)
Test: cell-based or functional assay

Substance: MOPC21-hIgG4 (S228P) isotype control (antibody)
- % inhibition of CD62L shedding: 21.1%
